# Results published in publication PMC9482650, “Quantitative fragmentomics allow affinity mapping of interactomes” (Nature Communications, 2022).
# T1: PDZD2_2, O15018
# T1 sequence (O15018 329-429, limits assumed, looked up): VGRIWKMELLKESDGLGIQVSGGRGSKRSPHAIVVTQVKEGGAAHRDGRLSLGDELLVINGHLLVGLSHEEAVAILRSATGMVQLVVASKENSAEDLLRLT
# T2: SNTA1, Q13424
# T2 sequence (Q13424 82-180, limits assumed, looked up): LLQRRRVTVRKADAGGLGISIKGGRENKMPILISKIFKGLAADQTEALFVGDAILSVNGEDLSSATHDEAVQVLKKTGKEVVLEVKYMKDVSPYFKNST
# T3: TJP3_3, O95049
# T3 sequence (O95049 375-456, limits assumed, looked up): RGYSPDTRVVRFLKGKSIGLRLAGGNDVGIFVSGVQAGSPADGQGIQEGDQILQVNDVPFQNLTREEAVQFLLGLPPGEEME
# T4: HTRA4, P83105
# T4 sequence (P83105 378-476, limits assumed, looked up): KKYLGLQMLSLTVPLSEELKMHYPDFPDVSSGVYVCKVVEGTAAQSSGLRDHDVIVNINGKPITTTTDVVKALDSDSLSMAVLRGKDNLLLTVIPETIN
# T5: GRIP1_2, Q9Y3R0
# T5 sequence (Q9Y3R0 145-248, limits assumed, looked up): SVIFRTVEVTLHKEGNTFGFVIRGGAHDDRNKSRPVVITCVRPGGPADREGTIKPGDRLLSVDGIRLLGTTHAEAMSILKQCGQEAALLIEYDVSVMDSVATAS
# T6: NHERF3_4, Q5T2W1
# T6 sequence (Q5T2W1 373-468, limits assumed, looked up): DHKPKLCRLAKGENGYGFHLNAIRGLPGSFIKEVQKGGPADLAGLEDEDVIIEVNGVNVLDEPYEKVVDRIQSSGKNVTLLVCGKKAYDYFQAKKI
# T7: SNTG1, Q9NSN8
# T7 sequence (Q9NSN8 52-150, limits assumed, looked up): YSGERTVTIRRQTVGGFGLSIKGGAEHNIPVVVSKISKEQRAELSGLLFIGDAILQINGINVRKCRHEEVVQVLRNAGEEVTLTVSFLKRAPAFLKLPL
# T8: SIPA1L2, Q9P2F8
# T8 sequence (Q9P2F8 945-1036, limits assumed, looked up): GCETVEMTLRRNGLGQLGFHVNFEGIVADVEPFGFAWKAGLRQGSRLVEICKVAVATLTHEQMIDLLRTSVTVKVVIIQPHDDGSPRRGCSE
# T9: NHERF3_3, Q5T2W1
# T9 sequence (Q5T2W1 238-333, limits assumed, looked up): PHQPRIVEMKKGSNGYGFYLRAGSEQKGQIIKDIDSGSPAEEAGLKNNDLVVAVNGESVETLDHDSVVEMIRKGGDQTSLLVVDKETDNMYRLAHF
# T10: CARD11, Q9BXL7
# T10 sequence (Q9BXL7 662-765, limits assumed, looked up): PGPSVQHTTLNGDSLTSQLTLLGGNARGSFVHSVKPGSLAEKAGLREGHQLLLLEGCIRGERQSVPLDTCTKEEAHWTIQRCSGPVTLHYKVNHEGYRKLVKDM
# Molecular target: MAST1, Q9Y2H9
# Sequence (Q9Y2H9 962-1065): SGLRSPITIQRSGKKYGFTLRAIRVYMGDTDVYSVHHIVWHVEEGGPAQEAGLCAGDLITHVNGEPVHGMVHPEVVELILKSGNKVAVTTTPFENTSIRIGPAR
# Experiment: holdup assay
# Design: key: below the threshold = too weak to quantify, mostly under pKd 3.1 to 4
# Conditions: plain residues with an end cap or a label only (N-terminal biotin on a linker: ado-ado)
row,Binder,pKd
1,"FLVTEFNVML [DFNB31, Q9P202]",3.89

# Molecular target: T1, PDZD2_2, O15018
# Experiment: holdup assay
# Design: key: below the threshold = too weak to quantify, mostly under pKd 3.1 to 4
# Conditions: plain residues with an end cap or a label only (N-terminal biotin on a linker: ado-ado)
row,Binder,pKd
1,"FLVTEFNVML [DFNB31, Q9P202]",3.63

# Molecular target: GOPC, Q9HD26
# Experiment: holdup assay
# Design: key: below the threshold = too weak to quantify, mostly under pKd 3.1 to 4
# Conditions: plain residues with an end cap or a label only (N-terminal biotin on a linker: ado-ado)
row,Binder,pKd
1,"FLVTEFNVML [DFNB31, Q9P202]",below the threshold

# Molecular target: GRIP2_3, Q9C0E4
# Sequence (Q9C0E4 238-339): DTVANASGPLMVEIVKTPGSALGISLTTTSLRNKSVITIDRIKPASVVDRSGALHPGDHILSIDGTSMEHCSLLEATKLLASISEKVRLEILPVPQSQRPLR
# Experiment: holdup assay
# Design: key: below the threshold = too weak to quantify, mostly under pKd 3.1 to 4
# Conditions: plain residues with an end cap or a label only (N-terminal biotin on a linker: ado-ado)
row,Binder,pKd
1,"FLVTEFNVML [DFNB31, Q9P202]",below the threshold

# Molecular target: LNX1_3, Q8TBB1
# Sequence (Q8TBB1 500-596): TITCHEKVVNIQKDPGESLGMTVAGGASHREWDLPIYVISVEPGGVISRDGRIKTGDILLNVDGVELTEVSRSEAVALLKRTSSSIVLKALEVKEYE
# Experiment: holdup assay
# Design: key: below the threshold = too weak to quantify, mostly under pKd 3.1 to 4
# Conditions: plain residues with an end cap or a label only (N-terminal biotin on a linker: ado-ado)
row,Binder,pKd
1,"FLVTEFNVML [DFNB31, Q9P202]",below the threshold

# Molecular target: NHERF4_2, Q86UT5
# Sequence (Q86UT5 220-308): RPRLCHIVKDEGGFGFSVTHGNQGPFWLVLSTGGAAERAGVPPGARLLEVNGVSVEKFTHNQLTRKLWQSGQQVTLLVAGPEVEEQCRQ
# Experiment: holdup assay
# Design: key: below the threshold = too weak to quantify, mostly under pKd 3.1 to 4
# Conditions: plain residues with an end cap or a label only (N-terminal biotin on a linker: ado-ado)
row,Binder,pKd
1,"FLVTEFNVML [DFNB31, Q9P202]",below the threshold

# Molecular target: GRIP2_4, Q9C0E4
# Sequence (Q9C0E4 446-548): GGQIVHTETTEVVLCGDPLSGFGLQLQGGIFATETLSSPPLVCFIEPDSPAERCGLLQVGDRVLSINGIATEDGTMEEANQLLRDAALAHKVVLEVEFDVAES
# Experiment: holdup assay
# Design: key: below the threshold = too weak to quantify, mostly under pKd 3.1 to 4
# Conditions: plain residues with an end cap or a label only (N-terminal biotin on a linker: ado-ado)
row,Binder,pKd
1,"FLVTEFNVML [DFNB31, Q9P202]",below the threshold

# Molecular target: T2, SNTA1, Q13424
# Experiment: holdup assay
# Design: key: below the threshold = too weak to quantify, mostly under pKd 3.1 to 4
# Conditions: plain residues with an end cap or a label only (N-terminal biotin on a linker: ado-ado)
row,Binder,pKd
1,"FLVTEFNVML [DFNB31, Q9P202]",3.73

# Molecular target: DLG2_2, Q15700
# Sequence (Q15700 189-283): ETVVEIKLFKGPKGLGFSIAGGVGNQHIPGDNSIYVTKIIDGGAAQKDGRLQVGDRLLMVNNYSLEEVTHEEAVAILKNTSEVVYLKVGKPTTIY
# Experiment: holdup assay
# Design: key: below the threshold = too weak to quantify, mostly under pKd 3.1 to 4
# Conditions: plain residues with an end cap or a label only (N-terminal biotin on a linker: ado-ado)
row,Binder,pKd
1,"FLVTEFNVML [DFNB31, Q9P202]",below the threshold

# Molecular target: MAGI2_4, Q86UL8
# Sequence (Q86UL8 772-865): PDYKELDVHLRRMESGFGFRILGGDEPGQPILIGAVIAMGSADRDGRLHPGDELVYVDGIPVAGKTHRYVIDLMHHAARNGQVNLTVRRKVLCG
# Experiment: holdup assay
# Design: key: below the threshold = too weak to quantify, mostly under pKd 3.1 to 4
# Conditions: plain residues with an end cap or a label only (N-terminal biotin on a linker: ado-ado)
row,Binder,pKd
1,"FLVTEFNVML [DFNB31, Q9P202]",below the threshold

# Molecular target: LDB3, O75112
# Sequence (O75112 1-94): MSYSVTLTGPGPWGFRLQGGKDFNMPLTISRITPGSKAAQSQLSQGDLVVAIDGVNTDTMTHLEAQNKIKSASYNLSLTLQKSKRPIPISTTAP
# Experiment: holdup assay
# Design: key: below the threshold = too weak to quantify, mostly under pKd 3.1 to 4
# Conditions: plain residues with an end cap or a label only (N-terminal biotin on a linker: ado-ado)
row,Binder,pKd
1,"FLVTEFNVML [DFNB31, Q9P202]",3.88

# Molecular target: PTPN3, P26045
# Sequence (P26045 505-587): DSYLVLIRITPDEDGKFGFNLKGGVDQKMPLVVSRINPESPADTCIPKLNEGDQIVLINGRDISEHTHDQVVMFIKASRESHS
# Experiment: holdup assay
# Design: key: below the threshold = too weak to quantify, mostly under pKd 3.1 to 4
# Conditions: plain residues with an end cap or a label only (N-terminal biotin on a linker: ado-ado)
row,Binder,pKd
1,"FLVTEFNVML [DFNB31, Q9P202]",3.89

# Molecular target: T3, TJP3_3, O95049
# Experiment: holdup assay
# Design: key: below the threshold = too weak to quantify, mostly under pKd 3.1 to 4
# Conditions: plain residues with an end cap or a label only (N-terminal biotin on a linker: ado-ado)
row,Binder,pKd
1,"FLVTEFNVML [DFNB31, Q9P202]",below the threshold

# Molecular target: T4, HTRA4, P83105
# Experiment: holdup assay
# Design: key: below the threshold = too weak to quantify, mostly under pKd 3.1 to 4
# Conditions: plain residues with an end cap or a label only (N-terminal biotin on a linker: ado-ado)
row,Binder,pKd
1,"FLVTEFNVML [DFNB31, Q9P202]",below the threshold

# Molecular target: FRMPD2_1, Q68DX3
# Sequence (Q68DX3 770-861): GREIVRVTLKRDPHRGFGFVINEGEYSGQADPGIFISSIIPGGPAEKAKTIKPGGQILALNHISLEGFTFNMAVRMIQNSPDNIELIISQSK
# Experiment: holdup assay
# Design: key: below the threshold = too weak to quantify, mostly under pKd 3.1 to 4
# Conditions: plain residues with an end cap or a label only (N-terminal biotin on a linker: ado-ado)
row,Binder,pKd
1,"FLVTEFNVML [DFNB31, Q9P202]",below the threshold

# Molecular target: SCRIB_2, Q14160
# Sequence (Q14160 857-960): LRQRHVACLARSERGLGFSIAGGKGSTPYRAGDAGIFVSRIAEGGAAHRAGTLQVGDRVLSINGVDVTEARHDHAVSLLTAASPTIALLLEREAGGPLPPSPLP
# Experiment: holdup assay
# Design: key: below the threshold = too weak to quantify, mostly under pKd 3.1 to 4
# Conditions: plain residues with an end cap or a label only (N-terminal biotin on a linker: ado-ado)
row,Binder,pKd
1,"FLVTEFNVML [DFNB31, Q9P202]",below the threshold

# Molecular target: T5, GRIP1_2, Q9Y3R0
# Experiment: holdup assay
# Design: key: below the threshold = too weak to quantify, mostly under pKd 3.1 to 4
# Conditions: plain residues with an end cap or a label only (N-terminal biotin on a linker: ado-ado)
row,Binder,pKd
1,"FLVTEFNVML [DFNB31, Q9P202]",below the threshold

# Molecular target: T6, NHERF3_4, Q5T2W1
# Experiment: holdup assay
# Design: key: below the threshold = too weak to quantify, mostly under pKd 3.1 to 4
# Conditions: plain residues with an end cap or a label only (N-terminal biotin on a linker: ado-ado)
row,Binder,pKd
1,"FLVTEFNVML [DFNB31, Q9P202]",4.55

# Molecular target: T7, SNTG1, Q9NSN8
# Experiment: holdup assay
# Design: key: below the threshold = too weak to quantify, mostly under pKd 3.1 to 4
# Conditions: plain residues with an end cap or a label only (N-terminal biotin on a linker: ado-ado)
row,Binder,pKd
1,"FLVTEFNVML [DFNB31, Q9P202]",below the threshold

# Molecular target: T8, SIPA1L2, Q9P2F8
# Experiment: holdup assay
# Design: key: below the threshold = too weak to quantify, mostly under pKd 3.1 to 4
# Conditions: plain residues with an end cap or a label only (N-terminal biotin on a linker: ado-ado)
row,Binder,pKd
1,"FLVTEFNVML [DFNB31, Q9P202]",below the threshold

# Molecular target: PICK1, Q9NRD5
# Sequence (Q9NRD5 17-115): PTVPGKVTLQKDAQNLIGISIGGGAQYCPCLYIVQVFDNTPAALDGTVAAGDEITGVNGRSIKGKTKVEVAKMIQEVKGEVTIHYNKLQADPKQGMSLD
# Experiment: holdup assay
# Design: key: below the threshold = too weak to quantify, mostly under pKd 3.1 to 4
# Conditions: plain residues with an end cap or a label only (N-terminal biotin on a linker: ado-ado)
row,Binder,pKd
1,"FLVTEFNVML [DFNB31, Q9P202]",below the threshold

# Molecular target: HTRA1, Q92743
# Sequence (Q92743 360-477): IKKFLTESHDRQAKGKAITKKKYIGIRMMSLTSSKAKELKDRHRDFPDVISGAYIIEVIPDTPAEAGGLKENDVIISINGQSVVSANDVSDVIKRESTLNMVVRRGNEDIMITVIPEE
# Experiment: holdup assay
# Design: key: below the threshold = too weak to quantify, mostly under pKd 3.1 to 4
# Conditions: plain residues with an end cap or a label only (N-terminal biotin on a linker: ado-ado)
row,Binder,pKd
1,"FLVTEFNVML [DFNB31, Q9P202]",4.4

# Molecular target: MAGI2_5, Q86UL8
# Sequence (Q86UL8 915-1017): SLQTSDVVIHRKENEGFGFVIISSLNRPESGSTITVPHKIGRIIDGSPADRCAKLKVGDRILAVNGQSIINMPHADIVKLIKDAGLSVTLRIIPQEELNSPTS
# Experiment: holdup assay
# Design: key: below the threshold = too weak to quantify, mostly under pKd 3.1 to 4
# Conditions: plain residues with an end cap or a label only (N-terminal biotin on a linker: ado-ado)
row,Binder,pKd
1,"FLVTEFNVML [DFNB31, Q9P202]",below the threshold

# Molecular target: CASK, O14936
# Sequence (O14936 487-570): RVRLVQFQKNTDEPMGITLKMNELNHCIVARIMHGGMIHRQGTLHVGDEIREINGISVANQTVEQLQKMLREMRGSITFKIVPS
# Experiment: holdup assay
# Design: key: below the threshold = too weak to quantify, mostly under pKd 3.1 to 4
# Conditions: plain residues with an end cap or a label only (N-terminal biotin on a linker: ado-ado)
row,Binder,pKd
1,"FLVTEFNVML [DFNB31, Q9P202]",below the threshold

# Molecular target: Inadl_5, Q8NI35
# Sequence (Q8NI35 673-780): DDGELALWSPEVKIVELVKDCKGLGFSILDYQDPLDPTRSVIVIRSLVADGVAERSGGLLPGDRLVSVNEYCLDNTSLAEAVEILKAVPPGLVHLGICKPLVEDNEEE
# Experiment: holdup assay
# Design: key: below the threshold = too weak to quantify, mostly under pKd 3.1 to 4
# Conditions: plain residues with an end cap or a label only (N-terminal biotin on a linker: ado-ado)
row,Binder,pKd
1,"FLVTEFNVML [DFNB31, Q9P202]",below the threshold

# Molecular target: Inadl_6, Q8NI35
# Sequence (Q8NI35 1058-1167): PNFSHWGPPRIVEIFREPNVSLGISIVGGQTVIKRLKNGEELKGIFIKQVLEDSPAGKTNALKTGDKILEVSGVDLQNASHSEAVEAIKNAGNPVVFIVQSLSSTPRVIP
# Experiment: holdup assay
# Design: key: below the threshold = too weak to quantify, mostly under pKd 3.1 to 4
# Conditions: plain residues with an end cap or a label only (N-terminal biotin on a linker: ado-ado)
row,Binder,pKd
1,"FLVTEFNVML [DFNB31, Q9P202]",below the threshold

# Molecular target: MAGI2_3, Q86UL8
# Sequence (Q86UL8 600-682): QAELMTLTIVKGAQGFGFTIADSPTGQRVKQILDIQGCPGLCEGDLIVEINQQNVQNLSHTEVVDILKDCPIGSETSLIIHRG
# Experiment: holdup assay
# Design: key: below the threshold = too weak to quantify, mostly under pKd 3.1 to 4
# Conditions: plain residues with an end cap or a label only (N-terminal biotin on a linker: ado-ado)
row,Binder,pKd
1,"FLVTEFNVML [DFNB31, Q9P202]",below the threshold

# Molecular target: T9, NHERF3_3, Q5T2W1
# Experiment: holdup assay
# Design: key: below the threshold = too weak to quantify, mostly under pKd 3.1 to 4
# Conditions: plain residues with an end cap or a label only (N-terminal biotin on a linker: ado-ado)
row,Binder,pKd
1,"FLVTEFNVML [DFNB31, Q9P202]",below the threshold

# Molecular target: T10, CARD11, Q9BXL7
# Experiment: holdup assay
# Design: key: below the threshold = too weak to quantify, mostly under pKd 3.1 to 4
# Conditions: plain residues with an end cap or a label only (N-terminal biotin on a linker: ado-ado)
row,Binder,pKd
1,"FLVTEFNVML [DFNB31, Q9P202]",below the threshold
